Source: patent publication US20190367631A1 (Regeneron, published 2019)

T1: full length human MSR1 with a C-terminal Myc tag, on HEK293.Myc.hMSR1 cells (human, UniProt P21757 1-451)
T1 construct: whole, on cells; stably expressed on engineered HEK293 cells; not shown: C-terminal Myc tag
T1 sequence (looked up): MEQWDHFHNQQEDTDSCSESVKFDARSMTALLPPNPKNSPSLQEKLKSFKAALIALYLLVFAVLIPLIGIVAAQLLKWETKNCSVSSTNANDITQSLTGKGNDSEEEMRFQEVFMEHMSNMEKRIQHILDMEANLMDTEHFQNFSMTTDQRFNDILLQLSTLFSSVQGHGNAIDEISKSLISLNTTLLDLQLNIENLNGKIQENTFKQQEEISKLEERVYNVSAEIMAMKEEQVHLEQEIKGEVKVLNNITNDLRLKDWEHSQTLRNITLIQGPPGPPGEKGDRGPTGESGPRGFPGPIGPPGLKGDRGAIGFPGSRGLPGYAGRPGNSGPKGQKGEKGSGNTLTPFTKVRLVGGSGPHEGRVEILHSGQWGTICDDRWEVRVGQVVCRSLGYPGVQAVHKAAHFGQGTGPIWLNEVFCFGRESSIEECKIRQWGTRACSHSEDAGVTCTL

T2: full length monkey MSR1 on HEK293.mfMSR1 cells (Macaca fascicularis, UniProt A0A2K5UWE2 1-451)
T2 construct: whole, on cells
T2 sequence: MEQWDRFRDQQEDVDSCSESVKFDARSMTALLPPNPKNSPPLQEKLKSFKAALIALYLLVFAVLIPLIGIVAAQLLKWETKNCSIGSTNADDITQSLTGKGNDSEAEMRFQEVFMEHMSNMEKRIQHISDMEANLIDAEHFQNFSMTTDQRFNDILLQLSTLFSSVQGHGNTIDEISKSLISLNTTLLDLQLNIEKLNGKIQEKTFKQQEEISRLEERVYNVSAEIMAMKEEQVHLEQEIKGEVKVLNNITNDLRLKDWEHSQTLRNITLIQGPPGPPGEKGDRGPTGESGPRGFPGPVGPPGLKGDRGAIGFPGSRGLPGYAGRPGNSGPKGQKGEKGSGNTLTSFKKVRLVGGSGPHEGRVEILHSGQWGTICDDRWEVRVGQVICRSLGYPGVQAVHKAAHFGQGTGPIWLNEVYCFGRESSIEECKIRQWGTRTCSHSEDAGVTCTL

T3: human MSR1 extracellular domain expressed with a N-terminal nonahistidine tag (human, UniProt P21757 77-451)
T3 construct: extracellular domain; also called His9-hMSR1; His-hMSR1
T3 sequence: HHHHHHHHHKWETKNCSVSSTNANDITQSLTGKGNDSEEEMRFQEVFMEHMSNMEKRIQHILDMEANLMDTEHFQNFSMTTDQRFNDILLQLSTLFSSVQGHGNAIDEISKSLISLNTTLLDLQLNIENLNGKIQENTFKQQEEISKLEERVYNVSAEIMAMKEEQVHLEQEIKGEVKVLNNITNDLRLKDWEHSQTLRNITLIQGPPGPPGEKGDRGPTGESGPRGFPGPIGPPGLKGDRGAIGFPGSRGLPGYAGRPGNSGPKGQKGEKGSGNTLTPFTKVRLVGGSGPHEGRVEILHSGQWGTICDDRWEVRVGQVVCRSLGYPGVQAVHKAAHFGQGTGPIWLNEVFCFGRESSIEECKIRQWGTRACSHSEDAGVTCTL

T4: mouse MSR1 on RAW264.7 cells (mouse, UniProt P30204 1-458)
T4 construct: whole, on cells; also called MSR1 positive RAW264.7 cells
T4 sequence (looked up): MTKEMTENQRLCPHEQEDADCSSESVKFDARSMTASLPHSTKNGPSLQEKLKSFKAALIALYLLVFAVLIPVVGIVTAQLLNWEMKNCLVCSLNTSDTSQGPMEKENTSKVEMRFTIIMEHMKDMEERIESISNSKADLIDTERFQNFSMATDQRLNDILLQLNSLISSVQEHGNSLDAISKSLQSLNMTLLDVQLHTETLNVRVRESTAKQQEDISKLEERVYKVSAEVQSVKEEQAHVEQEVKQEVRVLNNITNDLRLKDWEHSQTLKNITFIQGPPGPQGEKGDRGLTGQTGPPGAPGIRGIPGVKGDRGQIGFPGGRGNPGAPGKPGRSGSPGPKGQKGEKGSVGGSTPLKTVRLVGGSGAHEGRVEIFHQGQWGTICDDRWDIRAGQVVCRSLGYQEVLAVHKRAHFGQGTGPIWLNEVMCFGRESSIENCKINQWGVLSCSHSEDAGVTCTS


Key:
[1] = biological target: T1, full length human MSR1 with a …; experiment: ECL cell binding, HEK293.Myc.hMSR1 cells, 11 nM
Protocol: (§1) All cells were washed once with 1×PBS with Ca²⁺/Mg²⁺ and counted with a Cellometer™ Auto T4 cell counter (Nexcelom Bioscience). Approximately 1.0×10⁴ cells were seeded separately onto 96-well carbon electrode plates [MULTI-ARRAY high bind plate, Meso Scale Diagnostics] and incubated for 1 hour at 37° C. Non-specific binding sites were then blocked by 2% BSA (w/v) in PBS with Ca²⁺/Mg²⁺ for 1 hour at room temperature. THP-1 cells were pre-incubated for 0.5 hours at room temperature in sample dilution buffer with: 1) 1 mg/mL Fc receptor block reagents to block Fc gamma receptors on THP-1 cell surface [whole molecule human IgG (Jackson Immunoresearch, Cat #009-000-003) for wells being tested with anti-MSR1-mFc antibodies or 2) whole molecule mlgG (Jackson Immunoresearch, Cat #015-000-003) for wells being tested with anti-MSR1-hFc antibodies. Antibody binding on HEK293.Myc.hMSR1, HEK293.mfMSR1 and HEK293 cells was tested without Fc receptor block reagents. […] Plates were then washed to remove unbound antibodies an AquaMax2000 plate washer with a cell washing head (MDS Analytical Technologies). […] Plates were washed and developed with Read Buffer (Meso Scale Diagnostics, Cat # R92TD-2) according to manufacturer's recommended procedure and luminescent signals were recorded with a SECTOR Imager 600 (Meso Scale Diagnostics). Luminescence intensity, measured in relative light units (RLU), was recorded to indicate the binding intensity of each antibody at the range of concentrations.

[2] = biological target: T2, full length monkey MSR1 on …; experiment: ECL cell binding, HEK293.mfMSR1 cells, 11 nM
Protocol: as §1

[3] = biological target: T1, full length human MSR1 with a …; experiment: cell-based or functional assay
[4] = biological target: T3, human MSR1 extracellular domain …; experiment: competition ELISA, plate-coated His9-hMSR1; 1 µM antibody, competitor ligand 10 nM Ox-LDL
Protocol: (§2) Buffer alone was also added to wells on each coat. […] This assay was conducted in four different assay runs.
(§3) Data analysis was performed using a sigmoidal dose-response model within Prism™ software (GraphPad).

[5] = biological target: T3, human MSR1 extracellular domain …; experiment: competition ELISA, plate-coated His9-hMSR1; 100 nM antibody, competitor ligand Ac-LDL
Protocol: as §2, §3

[6] = biological target: T3, human MSR1 extracellular domain …; experiment: competition ELISA, plate-coated His9-hMSR1; 300 nM antibody, competitor ligand biot-AGE-BSA
Protocol: as §2, §3

[7] = biological target: T4, mouse MSR1 on RAW264.7 cells; experiment: flow cytometry, RAW264.7 cells
Protocol: To block binding to Fc receptors, RAW264.7 cells were incubated for 30 minutes at 4° C. with 500 pg/mL mouse IgG (Jackson ImmunoResearch, Cat #015-000-003) diluted in staining buffer, while B16F10.9 cells remained in staining buffer. […] The signal to noise (S/N) was determined by calculating the ratio of the anti-MSR1 antibodies or the control antibodies MFI to the unstained sample MFI (Table 11).

Row | ratio of binding signal (RLU) to isotype control [1] | ratio of binding signal (RLU) to isotype control [2] | % Inhibition of Dil-Acetylated LDL uptake [3] | % Inhibition of Dil-Oxidized LDL uptake [3] | IC50 of Dil-Acetylated LDL uptake inhibition [3] | IC50 of Dil-Oxidized LDL uptake inhibition [3] | % Blocking [4] | % Blocking [5] | % Blocking [6] | MFI [7] | S/N (MFI over unstained MFI) [7] | Binder
1 | 66 fold | 60 fold | 10% | 79% | > 100 nM | 3.1 nM | – | – | – | – | – | H2aM21228N (antibody, mouse IgG2a, V domains shown, mouse IgG2a Fc) VH: VQLVESGGGLVQPGGSLRLSCAASGFTFSDHYMDWVRQAPGKGLEWVGRTRNKANSHTTEYAASVSGRFTISRDDSKNSLYLQMNSLKTEDTAVYYCTRAGIIGTLFDYWGQGTLVTVSS VL: not shown
2 | 78 fold | 27 fold | – | 26% | – | > 100 nM | – | – | – | – | – | H2aM21229N (antibody, mouse IgG2a, V domains shown, mouse IgG2a Fc) VH: EVQLVESGGGLVKPGGSLRLSCAASGFTFSRYSMNWVRQAPGKGLEWVSSISSSSSYIYYGDTVKGRFTISRDNAKKSLYLQMNSLRAEDTAVYYCVRDRGQLVLYFDYWGQGTLVTVSS VL: DIQMTQSPASLSTSIRDRVTITCRASLSISSFLNWFQQRPGKAPKLLIYVASNLQSGVPSRFSDSGSGTDFTLTISSLQPEDFATYYCQQNYSTPPITFGQGTRLEIK
3 | 35 fold | 45 fold | 40% | 69% | > 170 nM | > 16 nM | – | – | – | – | – | H2aM25695N (antibody, mouse IgG2a, V domains shown, mouse IgG2a Fc) VH: QVQLQESGPGLVKPSETLSLTCTVTGGSISRNYWSWIRQPPGKGLEWIGYIYYSGSINYNPSLKSRVTISVDMSKNQFSLKLNSVTAADTAVYYCARDRWNWKYGMDVWGQGTTVIVSS VL: EIVLTQSPGTLSLSPGERATLSCRASQTVRNSYLAWYHQKPGQAPRLLIYGASSRATGIPDRFSGSGSGTDFTLTISRLEPEDFAVYYCQQYGSSYWTFGQGTKMEIKR
4 | 26 fold | 24 fold | – | – | – | – | – | – | – | – | – | H1xH29283P2 (antibody, V domains shown) VH: QVQLVQSGTEVKKPGSSVKVSCKASGGTFSRYTFSWVRQAPGQGLEWMGGIIPIFGTTNYAQKFQGRVTITTDESTSTVYMELSSLRSEDTAVYYCTRGGRYGWFDPWGQGTLVTVSS VL: not shown
5 | – | – | – | – | – | – | -65% | -58% | -16% | – | – | H1H27762P2-N297Q (antibody, V domains shown, Human IgG1 Fc with N297Q; also called H1H27762P-N297Q) VH: QVQLVQSGAEVKKPGSSVKVSCKASGGTFSRYDISWVRQAPGQGLEWMGGIIPIFGTSNYAQKFQGRVTITTDESTSTVYMELSSLRSEDTAVYYCARGGRYGWFDPWGQGTLVTVSS VL: not shown
6 | 22 fold | 21 fold | – | – | – | – | – | – | – | – | – | H1xH27759P2 (antibody, V domains shown) VH: EVQLVESGGGFVQPGGSLRLSCAASGFTFSSYAMSWVRQAPGKGLEWVSAISGTGSNTYYADSVKGRFTISRDNSKNTLYLQMNSLRAEDTAVYYCAKDRVTTVTYYFDYWGQGTLVTVSS VL: not shown

Continued, binder first:

Row | Binder | ratio of binding signal (RLU) to isotype control [1] | ratio of binding signal (RLU) to isotype control [2] | % Inhibition of Dil-Acetylated LDL uptake [3] | % Inhibition of Dil-Oxidized LDL uptake [3] | IC50 of Dil-Acetylated LDL uptake inhibition [3] | IC50 of Dil-Oxidized LDL uptake inhibition [3] | % Blocking [4] | % Blocking [5] | % Blocking [6] | MFI [7] | S/N (MFI over unstained MFI) [7]
7 | H1H27756P-N297Q (antibody, V domains shown, Human IgG1 Fc with N297Q) VH: QVQLVESGGGVVQPGRSLRLSCAASGFTFSNYDMHWVRQAPGKGLEWMAVISYDGINKYYADSVKGRFTISRDNSKNTLYLQMNSLRAEDTAVYYCAKGTYSWYFDLWGRGTLVTVSS VL: not shown | – | – | – | – | – | – | -45% | -54% | -8% | – | –
8 | H1H27751P-N297Q (antibody, human IgG1, V domains shown, human IgG1 Fc with N297Q) VH: EVQLVESGGGLVQPGGSLRLSCAASGFTFSNYAMHWVRQAPGKGLEYVSAISSNGGSTYYADSVKGRITISRDNSKNTLYLQMGSLRAEDMAVYYCARGRPYYYYFGMDVWGQGTTVTVSS VL: not shown | 63 fold | 49 fold | 59% | 85% | 1.6 nM | 2.9 nM | – | – | – | 3820 MFI | 1
9 | H1H21234N (antibody, human IgG1, V domains shown, original human IgG1 Fc) VH: QVQLQESGPGLVKPSETLSLTCTVTGGSISRNYWSWIRQPPGKGLEWIGYIYYSGSIDYNPSLKSRVTISVDTSKNQFSLKLSSMTAADTAVYYCARDRWNWKYGMDVWGQGTTVIVSS VL: EIVLTQSPGTLSLSPGERATLSCRASQTVRNNYLAWYHQKPGQAPRLLIYGASSRATGIPDRFSGSGSGTDFTLTISRLEPEDFTVYYCHQYGNSPWTFGQGTKMEIKR | 32 fold | 31 fold | 36% | 64% | 0.71 nM | 4.3 nM | – | – | – | – | –
10 | H1H27739P-N297Q (antibody, human IgG1, V domains shown, human IgG1 Fc with N297Q) VH: EVQLVESGGGLVQPGGSLRLSCTASGFTFSSYAMSWVRQAPGKGLEWVSAISGTGSSTYFTDSVKGRFAISRDNSKNTLYLQMNSLRAEDTAVYYCAKDGEWLSTVTLFDYWGQGTLVTVSS VL: EIVMTQSPATLSVSPGERATLSCRASQSVSSNLAWYQQKPGQAPRLLIYGASTRATGIPARFSGSGSGTDFTLTISSLQSEDFALYYCQQYFIWPPHPTFGPGTKVDIKR | 22 fold | 20 fold | – | 55% | – | > 100 nM | – | – | – | 3270 MFI | 1
11 | H1H27761P2-N297Q (antibody, V domains shown, Human IgG1 Fc with N297Q; also called H1H27761P-N297Q) VH: EVQLVESGGDLVQPGGSLRLSCSASGFTFNIYAMSWVRQAPGKGLEWVSGISGSGGSTYYADSVKGRFTISRDNSKNTLYFQMNSLRVEDTAVYYCAKKISSSSYYYYAMDVWGQGTTVTVSS VL: not shown | – | – | – | – | – | – | -21% | -36% | -4% | – | –
12 | H1H27760P2-N297Q (antibody, V domains shown, Human IgG1 Fc with N297Q; also called H1H27760P-N297Q) VH: EVQLVESGGGLVQPGRSLRLSCAASGFTFDAYAMHWVRQAPGKGLEWVSGISWNSGSIGYADSVKGRFTISRDNAKNSLYLQMNSLREEDTALYYCAKDKILELYYYGMDVWGQGTTVTVSS VL: not shown | – | – | – | – | – | – | -47% | -43% | -4% | – | –
13 | H1H27759P2-N297Q (antibody, human IgG1, V domains shown, Human IgG1 Fc with N297Q; also called H1H27759P-N297Q) VH: EVQLVESGGGFVQPGGSLRLSCAASGFTFSSYAMSWVRQAPGKGLEWVSAISGTGSNTYYADSVKGRFTISRDNSKNTLYLQMNSLRAEDTAVYYCAKDRVTTVTYYFDYWGQGTLVTVSS VL: not shown | – | – | – | – | – | – | -62% | -45% | -19% | – | –
